# Target: recombinant protein A/G (Pierce)
# Assay: plasmonic metamaterial refractive-index sensing (resonance wavelength shift, reflection probe); protein A/G (500 ug/mL in PBS, 45 min) physisorbed on gold nanodiscs of the sensor, washed 30 min with PBS; IgG 50 ug/mL applied in a microfluidic cell, plateau after 45 min, washed 30 min with …; reflection read at 1 min intervals
substance,measurement,value
"antimouse IgG (labeled with FITC) produced in goat (F5262, Sigma-Aldrich) (antibody)",resonance wavelength shift,2 nm

# Reference: paper PMC11212022
